The values below come from the Immune Epitope Database (IEDB).

In one experiment the target is HLA-B*07:02. Put plainly: IEDB peptide-MHC binding, purified MHC/competitive/radioactivity; filed as Kd, often an IC50 or EC50 that approximates it; ≥ and ≤ were set here for values at or beyond the usual limits of such assays.
The next experiment has as its target HLA-B*51:01. The experiment is described as above.
A further experiment addresses HLA-B*53:01. The description is as above.
A further experiment concerns the target HLA-B*35:01. The experiment is described as above.
The next experiment has as its target HLA-B*54:01. The experiment is described as above.
In another experiment the target is HLA-A*68:02. Described as above.
The target of a further experiment is HLA-A*02:06. Described as above.
The next experiment concerns the target HLA-B*08:01. Described as above.
The target of a further experiment is HLA-A*26:01. Put plainly: IEDB peptide-MHC binding, purified MHC/competitive/fluorescence; filed as Kd, often an IC50 or EC50 that approximates it; ≥ and ≤ were set here for values at or beyond the usual limits of such assays. Conditions: source organism: Orthohantavirus sinnombreense.
Where [1] appears, read: source organism: Lymphocytic choriomeningitis virus (strain Armstrong).
Where [2] appears, read: source organism: Dengue virus 1 Brazil/97-11/1997.
The mark [3] stands for this setting: source organism: Dengue virus 4 Philippines/H241/1956.
Where [4] appears, read: source organism: Vaccinia virus WR.
[5] abbreviates: source organism: Mammarenavirus brazilense.
Setting [6] is: source organism: Triticum aestivum.
Where [7] appears, read: source organism: SARS coronavirus Tor2.
Where [8] appears, read: source organism: Dengue virus 2 Jamaica/1409/1983.

For the sequence MPEWANFKF, the Kd – broadly, the equilibrium constant for the complex coming apart – with HLA-B*07:02 (setting [1]) is 769 nM; in the experiment with HLA-B*51:01 (setting [1]), no less than 28200 nM; in the experiment with HLA-B*53:01 (setting [1]), 13.5 nM; in the experiment with HLA-B*35:01 (setting [1]) it was 9.29 nM; in the experiment with HLA-B*54:01 (setting [1]), 1370 nM.
As to MSIPATLFV, the results for the Kd in the experiment with HLA-A*68:02 (setting [2]) and with HLA-A*02:06 (setting [2]) were 0.63 nM and 12.1 nM, respectively.
For the sequence MSTYGWNIV, the equilibrium dissociation constant (Kd) with HLA-A*68:02 (source organism: Dengue virus 3 Martinique/1243/1999) came out at 39.4 nM.
Consider MVMTTTANWL, for which, in the experiment with HLA-A*68:02 (setting [3]), the dissociation constant Kd is 6.51 nM.
The same measure, in the same setting: under MVRILIGFLV stands 401 nM.
For the sequence NLAERFCTE, in the experiment with HLA-B*08:01 (setting [4]), the Kd amounted to 1900 nM.
Take NNRVLFNNF: the Kd with HLA-B*08:01 (setting [4]) worked out at 773 nM.
The same measure, in the same setting: under NNRYRFAFL stands 31.1 nM.
For NPIVLHNGM, the dissociation constant Kd with HLA-B*07:02 (setting [5]) is 1760 nM; in the experiment with HLA-B*51:01 (setting [5]) it was no less than 32400 nM; with HLA-B*53:01 (setting [5]) it was 10500 nM; in the experiment with HLA-B*35:01 (setting [5]) it was 440 nM; with HLA-B*54:01 (setting [5]), no less than 78100 nM.
With NPQAQGSV, the Kd is 3660 nM with HLA-B*07:02 (setting [6]); 6060 nM with HLA-B*51:01 (setting [6]); no less than 87700 nM in the experiment with HLA-B*53:01 (setting [6]); no less than 87800 nM with HLA-B*35:01 (setting [6]); 10900 nM in the experiment with HLA-B*54:01 (setting [6]).
For PPALNCYWPL, the Kd in the experiment with HLA-B*07:02 (setting [7]) is 12700 nM; in the experiment with HLA-B*51:01 (setting [7]), 1190 nM; with HLA-B*53:01 (setting [7]) it was no less than 69900 nM; with HLA-B*35:01 (setting [7]) it was no less than 57900 nM; with HLA-B*54:01 (setting [7]), no less than 37900 nM.
With QLKGQGKSRL, the dissociation constant (Kd) was no less than 60000 nM in the experiment with HLA-A*68:02 (source organism: Homo sapiens) and no less than 42200 nM with HLA-A*02:06 (source organism: Homo sapiens).
On to QPFLQPQLPY, for which the Kd in the experiment with HLA-B*07:02 (setting [6]) was 950 nM; with HLA-B*51:01 (setting [6]) it was 14500 nM; with HLA-B*53:01 (setting [6]), 4580 nM; with HLA-B*35:01 (setting [6]), 28.6 nM; with HLA-B*54:01 (setting [6]) it was no less than 46600 nM.
Turning to QPGLLSYVI, the Kd with HLA-B*07:02 (setting [5]) was 12200 nM; with HLA-B*51:01 (setting [5]), 2260 nM; in the experiment with HLA-B*53:01 (setting [5]) it was 308 nM; in the experiment with HLA-B*35:01 (setting [5]), 1100 nM; in the experiment with HLA-B*54:01 (setting [5]), 5060 nM.
Turning to QPQQLPQF, the Kd is 1460 nM with HLA-B*07:02 (setting [6]); no less than 87300 nM with HLA-B*51:01 (setting [6]); no less than 87700 nM in the experiment with HLA-B*53:01 (setting [6]); no less than 87800 nM with HLA-B*35:01 (setting [6]); no less than 87700 nM in the experiment with HLA-B*54:01 (setting [6]).
On to RPEMQEFEY, for which the equilibrium dissociation constant (Kd) was no less than 68800 nM with HLA-B*07:02 (setting [4]); no less than 77500 nM with HLA-B*51:01 (setting [4]); 16.7 nM in the experiment with HLA-B*53:01 (setting [4]); 8.09 nM in the experiment with HLA-B*35:01 (setting [4]); no less than 78100 nM with HLA-B*54:01 (setting [4]).
With RPLMESELV, the dissociation constant (Kd) with HLA-B*07:02 (setting [7]) is 8200 nM; with HLA-B*51:01 (setting [7]), 2370 nM; with HLA-B*53:01 (setting [7]) it was no less than 42200 nM; with HLA-B*35:01 (setting [7]) it was no less than 24400 nM; with HLA-B*54:01 (setting [7]), no less than 47500 nM.
SASSMVNGV: the Kd with HLA-A*68:02 (setting [8]) was determined as 24.3 nM.
In the case of SGMRRQEQI, in the experiment with HLA-B*08:01 (setting [4]), the Kd amounted to 16.5 nM.
For SLPLPNFSSL, the Kd in the experiment with HLA-A*68:02 (source organism: Homo sapiens) turned out to be 1.19 nM; with HLA-A*02:06 (source organism: Homo sapiens), 641 nM.
Regarding SPKFTTSLSL, the dissociation constant (Kd) in the experiment with HLA-B*07:02 (setting [7]) was 8.39 nM; in the experiment with HLA-B*51:01 (setting [7]) it was 1090 nM; with HLA-B*53:01 (setting [7]), 1300 nM; with HLA-B*35:01 (setting [7]), 7920 nM; in the experiment with HLA-B*54:01 (setting [7]) it was no less than 28800 nM.
Turning to SSALLWMASV, the Kd with HLA-A*68:02 (setting [2]) was 46.7 nM.
In the case of STVGASGVY, the Kd with HLA-A*26:01 was no more than 1 nM.
Regarding TAIANQAAIL, in the experiment with HLA-B*08:01 (setting [2]), the Kd stood at 422 nM.
As for TRKVRSNAA, the equilibrium dissociation constant (Kd) with HLA-B*08:01 (setting [8]) stood at 6.25 nM.
For the sequence TSAGVNMCTL, the dissociation constant (Kd) in the experiment with HLA-A*68:02 (setting [2]) came out at 6.97 nM.
TSNHGVTATI: the Kd with HLA-A*68:02 (source organism: Dengue virus 4 Thailand/0348/1991) was 129 nM.
In the case of WMIRILIGFL, the dissociation constant (Kd) with HLA-B*08:01 (source organism: Dengue virus 4 Dominica/814669/1981) stood at 168 nM.
Consider YPLGQGSF, for which the dissociation constant (Kd) with HLA-B*07:02 (setting [6]) was 5550 nM; in the experiment with HLA-B*51:01 (setting [6]), 1140 nM; in the experiment with HLA-B*53:01 (setting [6]) it was 1660 nM; with HLA-B*35:01 (setting [6]) it was 1520 nM; with HLA-B*54:01 (setting [6]), no less than 53800 nM.
As to YRPLHFQYV, in the experiment with HLA-B*08:01 (setting [4]), the equilibrium dissociation constant (Kd) came out at 245 nM.
As for YTPEGIIPTL, the Kd with HLA-A*68:02 (setting [3]) was 264 nM; with HLA-A*02:06 (setting [3]) it was 21.3 nM.
Take YVVIGLLFMI: the Kd with HLA-A*68:02 (setting [2]) turned out to be 102 nM; in the experiment with HLA-A*02:06 (setting [2]) it was 140 nM.
